The source of these data is PMC12274814, “ATPase-dependent duplex nucleic acid unwinding by SARS-CoV-2 nsP13 relies on facile binding and translocation along single-stranded nucleic acid”.

Conditions in all cases: protein: recombinant; chain copies: 2; single strand 25 nt
The target of data set [1] is T1, nsP13 helicase (SARS-CoV-2, UniProt P0DTD1 5325-5925). In words: competition, 500 nM ssDNA-F, 30 nM nsP13.
Data set [2] concerns the target T1, nsP13 helicase. In words: competition, 500 nM ssDNA-F, 30 nM nsP13; 3 mM ATP, 5 mM Mg2+; K1/2 of TrapDNA.
In data set [3] the target is T1, nsP13 helicase. In words: competition, 500 nM ssDNA-F, 30 nM nsP13; 3 mM ATPgS, 5 mM Mg2+; K1/2 of TrapDNA.

By IC50 is commonly meant the concentration that inhibits the measured activity by half. For the molecule TCTAATGTAGTATAGTAATCCGCTC (ssDNA) [TrapDNA], the half-maximal inhibitory concentration (IC50) with nsP13 helicase [1] is 460 nM; with nsP13 helicase [2] it was 950 nM; with nsP13 helicase [3] it was 3100 nM.
